The labels stand for the following.
B1: IQUB (parent)
chain: KIREKEEWIKLDYHRRHNPKTNED
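Note: lentivirally expressed fusions sorted by FACS into six bins by GFP to DsRed ratio, PSI derived from sequencing read proportions per bin multiplied by bin number.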

This data set covers variants of B1. As to the kind of experiment: protein stability index of a GFP-peptide fusion (GPS, HEK-293T) (PSI 1-6); higher = more stable. The note with it: c terminus: a fixed tail appended.
KIREKLEWIKLDYHRRHNPKTNED [E6L]: the protein stability index worked out at 2.7.

Consider KIREKVEWIKLDYHRRHNPKTNED [E6V], for which the protein stability index amounted to 3.63.

Take KIREKNEWIKLDYHRRHNPKTNED [E6N]: the protein stability index was 4.52.

Consider KIREKYEWIKLDYHRRHNPKTNED [E6Y], for which the protein stability index was determined as 2.88.

Take KIREKAEWIKLDYHRRHNPKTNED [E6A]: the protein stability index came out at 3.32.

As to KIREKTEWIKLDYHRRHNPKTNED [E6T], the protein stability index turned out to be 4.41.

As for KIREKREWIKLDYHRRHNPKTNED [E6R], the protein stability index is 4.66.

On to KIREKHEWIKLDYHRRHNPKTNED [E6H], for which the protein stability index came out at 3.98.

As to KIREKWEWIKLDYHRRHNPKTNED [E6W], the protein stability index came out at 2.61.

For KIREKFEWIKLDYHRRHNPKTNED [E6F], the protein stability index stood at 3.56.

Consider KIREKDEWIKLDYHRRHNPKTNED [E6D], for which the protein stability index is 4.31.

As to KIREKPEWIKLDYHRRHNPKTNED [E6P], the protein stability index was found to be 3.58.

As to KIREKSEWIKLDYHRRHNPKTNED [E6S], the protein stability index was found to be 4.03.

For the variant KIREKQEWIKLDYHRRHNPKTNED [E6Q], the protein stability index is 4.47.

Turning to KIREKMEWIKLDYHRRHNPKTNED [E6M], the protein stability index amounted to 3.69.

For the variant KIREKCEWIKLDYHRRHNPKTNED [E6C], the protein stability index was found to be 4.35.

Consider KIREKGEWIKLDYHRRHNPKTNED [E6G], for which the protein stability index is 3.96.

As for KIREKKEWIKLDYHRRHNPKTNED [E6K], the protein stability index was found to be 3.98.

As for KIREKEENIKLDYHRRHNPKTNED [W8N], the protein stability index was found to be 5.03.

Turning to KIREKEEGIKLDYHRRHNPKTNED [W8G], the protein stability index turned out to be 5.54.

For the variant KIREKEEYIKLDYHRRHNPKTNED [W8Y], the protein stability index stood at 5.13.

With KIREKEELIKLDYHRRHNPKTNED [W8L], the protein stability index amounted to 4.94.

As for KIREKEECIKLDYHRRHNPKTNED [W8C], the protein stability index came to 4.93.

As for KIREKEEIIKLDYHRRHNPKTNED [W8I], the protein stability index was 4.24.

KIREKEEPIKLDYHRRHNPKTNED [W8P]: the protein stability index is 5.25.

For the variant KIREKEERIKLDYHRRHNPKTNED [W8R], the protein stability index was found to be 4.91.

For the variant KIREKEEQIKLDYHRRHNPKTNED [W8Q], the protein stability index worked out at 5.58.

For the variant KIREKEEEIKLDYHRRHNPKTNED [W8E], the protein stability index stood at 4.69.

Take KIREKEEAIKLDYHRRHNPKTNED [W8A]: the protein stability index was 5.18.

Turning to KIREKEEFIKLDYHRRHNPKTNED [W8F], the protein stability index was 4.24.

Turning to KIREKEEMIKLDYHRRHNPKTNED [W8M], the protein stability index was 5.1.

Take KIREKEETIKLDYHRRHNPKTNED [W8T]: the protein stability index was 5.19.

On to KIREKEEKIKLDYHRRHNPKTNED [W8K], for which the protein stability index was 5.19.

On to KIREKEEHIKLDYHRRHNPKTNED [W8H], for which the protein stability index came out at 4.99.

For the variant KIREKEEDIKLDYHRRHNPKTNED [W8D], the protein stability index amounted to 5.13.

On to KIREKEEVIKLDYHRRHNPKTNED [W8V], for which the protein stability index was determined as 5.07.

With KIREKEESIKLDYHRRHNPKTNED [W8S], the protein stability index was 5.41.

Take KIREKEEWFKLDYHRRHNPKTNED [I9F]: the protein stability index is 3.96.

Regarding KIREKEEWKKLDYHRRHNPKTNED [I9K], the protein stability index came out at 5.13.

With KIREKEEWYKLDYHRRHNPKTNED [I9Y], the protein stability index came to 4.73.

With KIREKEEWPKLDYHRRHNPKTNED [I9P], the protein stability index came to 4.94.

In the case of KIREKEEWSKLDYHRRHNPKTNED [I9S], the protein stability index was found to be 4.62.

As to KIREKEEWNKLDYHRRHNPKTNED [I9N], the protein stability index was determined as 5.07.

In the case of KIREKEEWHKLDYHRRHNPKTNED [I9H], the protein stability index is 4.45.

Regarding KIREKEEWVKLDYHRRHNPKTNED [I9V], the protein stability index was found to be 4.86.

As to KIREKEEWCKLDYHRRHNPKTNED [I9C], the protein stability index is 4.12.

With KIREKEEWMKLDYHRRHNPKTNED [I9M], the protein stability index worked out at 4.75.

With KIREKEEWLKLDYHRRHNPKTNED [I9L], the protein stability index worked out at 4.66.

On to KIREKEEWAKLDYHRRHNPKTNED [I9A], for which the protein stability index worked out at 5.24.

For the variant KIREKEEWQKLDYHRRHNPKTNED [I9Q], the protein stability index turned out to be 5.24.

For the variant KIREKEEWEKLDYHRRHNPKTNED [I9E], the protein stability index turned out to be 5.25.

As for KIREKEEWDKLDYHRRHNPKTNED [I9D], the protein stability index came out at 5.22.

As for KIREKEEWGKLDYHRRHNPKTNED [I9G], the protein stability index was 5.35.

Consider KIREKEEWTKLDYHRRHNPKTNED [I9T], for which the protein stability index worked out at 5.1.

As to KIREKEFWIKLDYHRRHNPKTNED [E7F], the protein stability index turned out to be 3.34.

Turning to KIREKEKWIKLDYHRRHNPKTNED [E7K], the protein stability index stood at 4.03.

Regarding KIREKEAWIKLDYHRRHNPKTNED [E7A], the protein stability index was found to be 4.74.

Consider KIREKESWIKLDYHRRHNPKTNED [E7S], for which the protein stability index came to 4.46.

Turning to KIREKEYWIKLDYHRRHNPKTNED [E7Y], the protein stability index came out at 3.31.

Turning to KIREKEVWIKLDYHRRHNPKTNED [E7V], the protein stability index came out at 3.99.

KIREKECWIKLDYHRRHNPKTNED [E7C]: the protein stability index was determined as 4.61.

For KIREKEIWIKLDYHRRHNPKTNED [E7I], the protein stability index came to 3.36.

KIREKENWIKLDYHRRHNPKTNED [E7N]: the protein stability index amounted to 4.45.

KIREKEGWIKLDYHRRHNPKTNED [E7G]: the protein stability index amounted to 3.8.

Consider KIREKETWIKLDYHRRHNPKTNED [E7T], for which the protein stability index stood at 4.37.

KIREKEMWIKLDYHRRHNPKTNED [E7M]: the protein stability index turned out to be 3.27.

For the variant KIREKEHWIKLDYHRRHNPKTNED [E7H], the protein stability index was 4.34.

In the case of KIREKEPWIKLDYHRRHNPKTNED [E7P], the protein stability index was determined as 3.6.

As for KIREKELWIKLDYHRRHNPKTNED [E7L], the protein stability index came to 2.68.

For the variant KIREKEWWIKLDYHRRHNPKTNED [E7W], the protein stability index is 3.46.

On to KIREKERWIKLDYHRRHNPKTNED [E7R], for which the protein stability index stood at 3.51.

KIREKEQWIKLDYHRRHNPKTNED [E7Q]: the protein stability index worked out at 4.19.

Turning to KIREKEDWIKLDYHRRHNPKTNED [E7D], the protein stability index is 4.48.

On to KIREKEEWITLDYHRRHNPKTNED [K10T], for which the protein stability index is 4.97.

With KIREKEEWIVLDYHRRHNPKTNED [K10V], the protein stability index is 4.2.

Regarding KIREKEEWIGLDYHRRHNPKTNED [K10G], the protein stability index came out at 4.9.

As for KIREKEEWINLDYHRRHNPKTNED [K10N], the protein stability index was found to be 4.48.

As to KIREKEEWIFLDYHRRHNPKTNED [K10F], the protein stability index worked out at 4.68.

With KIREKEEWIDLDYHRRHNPKTNED [K10D], the protein stability index was determined as 4.99.

Consider KIREKEEWIPLDYHRRHNPKTNED [K10P], for which the protein stability index worked out at 5.26.

On to KIREKEEWIYLDYHRRHNPKTNED [K10Y], for which the protein stability index worked out at 4.31.

As to KIREKEEWIQLDYHRRHNPKTNED [K10Q], the protein stability index came out at 4.74.

Take KIREKEEWIALDYHRRHNPKTNED [K10A]: the protein stability index is 4.65.

KIREKEEWIWLDYHRRHNPKTNED [K10W]: the protein stability index is 3.17.

Regarding KIREKEEWICLDYHRRHNPKTNED [K10C], the protein stability index came out at 4.15.

As to KIREKEEWIELDYHRRHNPKTNED [K10E], the protein stability index was found to be 5.3.

Take KIREKEEWIILDYHRRHNPKTNED [K10I]: the protein stability index came to 4.16.

KIREKEEWIRLDYHRRHNPKTNED [K10R]: the protein stability index worked out at 4.92.

In the case of KIREKEEWIMLDYHRRHNPKTNED [K10M], the protein stability index came to 4.67.

Consider KIREKEEWISLDYHRRHNPKTNED [K10S], for which the protein stability index stood at 4.68.

With KIREKEEWILLDYHRRHNPKTNED [K10L], the protein stability index was 4.04.

For KIREKEEWIHLDYHRRHNPKTNED [K10H], the protein stability index came out at 4.56.

Take KIREKEEWIKADYHRRHNPKTNED [L11A]: the protein stability index was determined as 4.77.

On to KIREYEEWIKLDYHRRHNPKTNED [K5Y], for which the protein stability index was determined as 3.92.

These data come from the supplement of paper PMC10567573.
